What was measured:
hT40 = molecular target: T1, hT40 (Homo sapiens, UniProt P10636); experiment: Sandwich ELISA limits of detection (LoD) of antibody pairs; assay type: binding
T1 construct: Full length tau (hT40)
Source text: The diverse panel of high affinity anti-tau antibodies (scAb and mAb formats) were paired in various combinations and tested in a Sandwich (or Capture) ELISA format to calculate their limits of detection (LoD) and their ability to differentiate between different tau species. Biologically, tau exists in 6 different isoforms and is subjected to numerous post translational modifications, some of them playing a significant role in the progression of neurodegeneration.
For Sandwich ELISA using colourimetric detection, 96 well Maxisorp plates were coated with the capture antibody S1D12 mAb at 1 μg/ml for 1 h at RT followed by blocking with 2% MPBS as normal. Full length tau (hT40), at 1 μg/ml starting concentration was added to designated wells and double diluted across rest of the plates and left to incubate at R/T for 1 h. A series of detection scAbs with varying epitope recognition properties were added at 10 μg/ml to designated wells (FIG. 22). For colourimetric detection HRP conjugated anti-HuCk secondary antibody was used and the resulting immunoreaction was developed and absorbance at 450 nm measured as described previously. Cut-off point for a positive binding event was an absorbance value of 0.3 following background subtraction. In order to enhance the assay sensitivity, a chemiluminescent detection method was adopted where 50 μL SuperSignal ELISA Femto Substrate (Thermo Scientific) was added to each well following incubation with anti-HuCK HRP antibody and subsequent washing. The luminescence was read using Clariostar Plus microplate reader. A further modification to this protocol was done where various detection scAbs were directly conjugated with HRP and detected using chemiluminescent protocol as before. The lowest levels of detection achieved using different detection scAbs and a comparison of colourimetric and chemiluminescent methods of detection are shown in Table 28
Similarly, a sandwich ELISA format was set up using S1G2 mAb at 1 μg/ml as the capture antibody and HRP conjugated S1D12 mAb for detection. The assay was conducted using chemiluminescent protocol described above.

dGAE aggregates = dGAE aggregates (Homo sapiens, UniProt P10636); experiment: Epitope occlusion assay: dGAE aggregation with/without LMTM, 423 mAb capture ELISA; assay type: biochemical; conditions: total and supernatant samples; 423 mAb capture
Sequence of dGAE aggregates (P10636 614-708): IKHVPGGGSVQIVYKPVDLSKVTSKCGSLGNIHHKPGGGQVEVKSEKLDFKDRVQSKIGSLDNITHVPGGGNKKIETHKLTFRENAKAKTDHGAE
Protocol: During dGAE aggregation in vitro, scAb binding regions on dGA/dGAE are ‘hidden’ or ‘occluded’ which leads to a loss of immunoreactivity in aggregation samples. Here we have shown the occlusion of binding regions in aggregated dGAE samples and the recovery of immunoreactivity in the presence of LMTM, a tau-aggregation inhibitor. For preparing the aggregates, 10 μl 10 mM DTT was added to 1000 μl 100 μM dGAE and agitated with/without LMTM (1:5 ratio) at 700 rpm for 24 h at 37° C. Following overnight agitation, one third of each sample was kept aside as ‘total’ and the rest was spun down at 16000×g for 30 min and separated into ‘supernatant’ and ‘pellet’. The pellet was then resuspended in half the original volume for further experiments. […] Doubling dilutions of dGAE aggregate ‘total’, ‘supernatant’ and ‘pellet’ samples at 10 μg/ml starting concentration were added to designated wells in doubling dilutions in 1×PBS. dGAE monomer (non-aggregated) was included as assay control. All double dilutions were done in final volumes of 100 μl. This was left to incubate on lab bench for 1 h followed by the addition of test scAbs at 10 μg/ml. Anti-HuCk HRP labelled secondary antibody was added as described previously and ELISA data generated is represented using the graph below.

htau40 = molecular target: T2, htau40 (Homo sapiens, UniProt P10636); experiment: Biacore X100 SPR kinetics of anti-tau mAbs on immobilised htau40; assay type: binding
T2 construct: Full length tau (hT40)
T2 sequence (P10636 1-441 isoform P10636-8): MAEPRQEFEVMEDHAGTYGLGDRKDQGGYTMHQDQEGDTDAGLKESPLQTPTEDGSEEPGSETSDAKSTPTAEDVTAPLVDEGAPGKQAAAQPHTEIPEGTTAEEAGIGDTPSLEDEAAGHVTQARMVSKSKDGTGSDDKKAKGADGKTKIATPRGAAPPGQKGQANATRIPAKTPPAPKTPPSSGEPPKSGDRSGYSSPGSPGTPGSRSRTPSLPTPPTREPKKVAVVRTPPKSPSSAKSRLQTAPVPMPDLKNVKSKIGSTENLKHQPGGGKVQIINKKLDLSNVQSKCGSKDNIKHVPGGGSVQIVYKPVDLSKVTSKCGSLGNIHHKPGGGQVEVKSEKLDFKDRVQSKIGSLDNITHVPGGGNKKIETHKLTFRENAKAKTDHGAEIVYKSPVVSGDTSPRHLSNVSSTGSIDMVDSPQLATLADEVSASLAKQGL
Procedure, shortened: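 Htau40 amine-coupled to CM5 chip (~250 RU, pH 4.0 immobilisation), reference flow cell subtracted; mAb injected at 0.78–25 nM in HBS-EP+, 120 s association, 600 s dissociation, glycine pH 1.5 regeneration. Kinetic and affinity constants from 1:1 binding model fit.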

[1] = test system: 13 aa tau peptides of hT40; experiment: Alanine scanning mutagenesis (ASM) peptide ELISA; assay type: binding, human; conditions: alanine substituted peptides; numbering SEQ ID NO: 1
Protocol: Briefly, 5 μg/ml streptavidin (Thermo Fisher) was adsorbed to Nunc 96-well MaxiSorp plates and following incubation at 37° C. for 1 h, the plates were washed as normal and blocked with 2% MPBS. N-terminally biotinylated peptides (Prolmmune Ltd) were added to the plates and incubated for 1 h at 37° C. Subsequently, test scAbs at starting concentrations of 100-500 nM was added and double diluted across the plate for each peptide and incubated for 1 h at 37° C. Rest of the ELISA was conducted as described above and the plates were read at absorbance 450 nm. Immunoreactivity of the scAb of interest was quantified as the % of scAb was bound for each peptide at a chosen concentration (FIG. 15-20).

[2] = molecular target: T3, hT40 (T441, SEQ ID NO: 1) (Homo sapiens, UniProt P10636); experiment: Biacore X100 SPR kinetics of scAbs for hT40; assay type: binding; conditions: Table 23; scAb captured, T441 (hT40) analyte; 1:1 model
T3 construct: Full length tau (hT40)
T3 sequence (P10636 1-441 isoform P10636-8): as above
Procedure, shortened: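 Captured scAb on anti-HuCk CM5 surface (flow cell 1 as reference) in HBS-EP+, capture set for theoretical RMax 100 RU; hT40 injected multi-cycle (0.15625–100 nM) or single-cycle (6.25–100 nM), 120 s association, 420 s dissociation, glycine pH 2.0 regeneration. Kinetics and affinity from 1:1 binding model fit.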

[3] = test system: hT40, dGA, dGAE and truncated tau fragments; experiment: Binding ELISA / epitope mapping of anti-tau scAbs with truncated tau proteins and 13mer peptides; design: species or system human; conditions: for Tau proteins/fragments with positive scAb reactivity / Shortest region bound on hT40: Table 17, 'C' group scAbs; for Tau proteins/fragments with positive scAb reactivity: binding ELISA; for Shortest region bound on hT40: incl. 13mer peptides; for Detection scAb (Epitope): Table 28 (LoD table)
Procedure, shortened: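 Serially double-diluted scAbs were applied to 2% MPBS-blocked wells carrying either 1 μg/ml full-length or truncated tau, or biotinylated 13mer peptides (1 μg/ml) captured on 5 μg/ml streptavidin. Absorbance after HRP anti-human C kappa secondary gave the binding signal.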

[4] = Table 27, mAb format, immobilised htau40
[5] = residue numbers of SEQ ID NO: 1 (hT40), CDR Tables 1-11

T1 sequence (P10636 1-441 isoform P10636-8): as above

Row | Molecule | LOD for hT40 (hT40; S1G2 mAb capture, HRP labelled S1D12 mAb detection, chemiluminescence) [ng/mL] | immunoreactivity to dGAE aggregation samples prepared in the presence of LMTM (dGAE aggregates) | ka (htau40; [4]) [M⁻¹ s⁻¹] | kd (htau40; [4]) [s⁻¹] | Kd (htau40; as quoted in Example 32, read-out: affinity) [nM] | critical binding residues [1] | ka [2] [M⁻¹ s⁻¹] | kd [2] [s⁻¹] | Tau proteins/fragments with positive scAb reactivity [3] | Shortest region bound on hT40 [3] | Epitope ([3]; Table 26 summary, top scAbs, residues of hT40) | Detection scAb (Epitope) ([3]; residues of hT40) | Binding regions on hT40 ([3]; Table 33, core binding scAbs tested in epitope occlusion assays) | Epitope [3, 5] | LoD (ng/ml) chemiluminescence detection (hT40; S1D12 mAb capture, hT40, SuperSignal ELISA Femto Substrate) [ng/mL] | LoD (ng/ml) colourimetric detection (hT40; S1D12 mAb capture, hT40, detection scAb 10 μg/ml, anti-HuCk HRP) [ng/mL]
1 | S1G2 mAb: S1G2 reformatted; heavy chain SEQ ID NO: 457, light chain 458 (antibody, S1G2 mAB Heavy Chain; S1G2 mAB Light Chain) heavy: QVQLQESGPSLVKPSQTLSLTCTVSGFSLTSNSVGWVRQAPGKAPEWVAGIDTDGEEGYNPALNSRLSITRDTSKSQVSLSLSSVTSEDTAVYYCGRSYRADGLAYGYVQAIDYWGPGLLVTVSSAKTTAPSVYPLAPVCGDTTGSSVTLGCLVKGYFPEPVTLTWNSGSLSSGVHTFPAVLQSDLYTLSSSVTVTSSTWPSQSITCNVAHPASSTKVDKKIEPRGPTIKPCPPCKCPAPNLLGGPSVFIFPPKIKDVLMISLSPIVTCVVVDVSEDDPDVQISWFVNNVEVHTAQTQTHREDYNSTLRVVSALPIQHQDWMSGKEFKCKVNNKDLPAPIERTISKPKGSVRAPQVYVLPPPEEEMTKKQVTLTCMVTDFMPEDIYVEWTNNGKTELNYKNTEPVLDSDGSYFMYSKLRVEKKNWVERNSYSCSVVHEGLHNHHTTKSFSRTPGK light: QAVVTQPSSVSGSLGQRVSITCSGSFIGISSVGWFQQLPGSGLRTIIVASDGRPSGVPDRFSMSKSGNTATLTISSLQAEDEADYFCGSSDRTPYTGVFGSGTRLTVLGGQPKSSPSVTLFPPSSEELETNKATLVCTITDFYPGVVTVDWKVDGTPVTQGMETTQPSKQSNNKYMASSYLTLTARAWERHSSYSCQVTHEGHTVEKSLSRADCS | ~1 | – | – | – | – | – | – | – | – | – | – | – | – | – | – | –
2 | CA4: anti-tau core clone, Table 10; SEQ ID NO: 368 (protein, CA4 amino acid sequence) scFv: QVQLQESGPSLVKPSQTLSLTCTVSGFSLTSYSVYWVRQAPGQALEWISIMYASGRVDYNPALKSRLSITRDTSKSQFSLSLSSVTTEDTAVYYCTRGIENWGPGLLVTVSSEGKSSGASGESKVDDDIQVTQSPSSLSASLTERVSITCRTSQSVNNYLSWYQQKPGQAPKLLIYYATRLYTDVPSRFSGSGSGTDYTLTITSLEADDTATYYCLQYDSTPLAFGGGTNVEIK | – | increase in immunoreactivity | 1.02e+06 | 0.001276 | 3 | 358 (D), 360 (I), 361 (T), 362 (H) and/or 364 (P) | 458100 | 0.001654 | hT40, 239-441, 297-390 (dGA) | 355-367 | 355-367 | CA4 (355-367) | 355-367 | 355-367 | – | –
3 | CA2: anti-tau clone, Table 10; SEQ ID NO: 363 (protein, CA2 amino acid sequence) QVQLQESGPSLVKPSQTLSLTCTVSGFSLSSVAVNWVRQAPGKVPEWLGGIISNGGTGYNPALKSRLSITRDTSKSQVSLALTHVTTEDTAVYYCGRGVEWEGSMDYLGPGLLVTVSSEGKSSGSGSETKVDDQSVLTQPSSVSGFLGQRVTITCSGSSSNVGAGSYVGWYQQVPGSGLRILIYGATKRASGLPDRFSGSRSGNTATLTISSLQAEDEADYYCVSYQTDFTLVFGSGTRLTVLG | – | – | – | – | – | – | – | – | hT40, 1-49, 1-319, 1-155, 186-350, 348-441 | 1-155 | – | CA2 (100-155) | – | 1-155 | 0.37 | 6

Source: patent US20250355001A1, “METHOD FOR DETECTING A TAU PROTEIN FRAGMENT IN A SAMPLE” (GTINVENT LIMITED, priority 2022, published 2025)
